Experiments:
[1] = target: T1, human LILRB1 on CHOK1 cells (human, UniProt Q8NHL6 24-650); experiment: FACS binding, CHOK1-hLILRB1 cells
T1 construct: whole, on cells; also called CHOK1-hLILRB1; CHOK1-LILRB1

[2] = target: T1, human LILRB1 on CHOK1 cells; experiment: cell-based RBA (FACS): blocking of HLA-G binding to CHOK1-hLILRB1 cells
[3] = target: T2, human LILRB2 on CHOK1 cells (human, UniProt Q8N423 22-597); experiment: FACS binding, CHOK1-hLILRB2 cells
T2 construct: whole, on cells; also called CHOK1-hLILRB2; CHOK1-LILRB2
T2 sequence (Q8N423 22-597): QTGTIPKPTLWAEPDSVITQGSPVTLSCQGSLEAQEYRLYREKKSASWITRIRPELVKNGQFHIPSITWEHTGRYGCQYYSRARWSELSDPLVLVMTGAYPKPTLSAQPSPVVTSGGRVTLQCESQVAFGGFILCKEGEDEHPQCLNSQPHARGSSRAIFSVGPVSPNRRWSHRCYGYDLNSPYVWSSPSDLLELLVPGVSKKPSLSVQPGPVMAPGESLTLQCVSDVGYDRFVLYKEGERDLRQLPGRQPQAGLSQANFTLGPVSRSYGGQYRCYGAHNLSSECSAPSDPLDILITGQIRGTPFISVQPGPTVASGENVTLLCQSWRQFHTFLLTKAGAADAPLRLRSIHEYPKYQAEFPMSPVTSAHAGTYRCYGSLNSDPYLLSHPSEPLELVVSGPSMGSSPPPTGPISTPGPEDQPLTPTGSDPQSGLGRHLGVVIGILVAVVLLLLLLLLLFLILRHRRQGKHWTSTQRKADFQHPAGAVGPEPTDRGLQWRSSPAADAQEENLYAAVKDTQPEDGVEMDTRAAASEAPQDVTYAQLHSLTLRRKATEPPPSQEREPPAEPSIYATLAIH

T1 sequence (Q8NHL6 24-650): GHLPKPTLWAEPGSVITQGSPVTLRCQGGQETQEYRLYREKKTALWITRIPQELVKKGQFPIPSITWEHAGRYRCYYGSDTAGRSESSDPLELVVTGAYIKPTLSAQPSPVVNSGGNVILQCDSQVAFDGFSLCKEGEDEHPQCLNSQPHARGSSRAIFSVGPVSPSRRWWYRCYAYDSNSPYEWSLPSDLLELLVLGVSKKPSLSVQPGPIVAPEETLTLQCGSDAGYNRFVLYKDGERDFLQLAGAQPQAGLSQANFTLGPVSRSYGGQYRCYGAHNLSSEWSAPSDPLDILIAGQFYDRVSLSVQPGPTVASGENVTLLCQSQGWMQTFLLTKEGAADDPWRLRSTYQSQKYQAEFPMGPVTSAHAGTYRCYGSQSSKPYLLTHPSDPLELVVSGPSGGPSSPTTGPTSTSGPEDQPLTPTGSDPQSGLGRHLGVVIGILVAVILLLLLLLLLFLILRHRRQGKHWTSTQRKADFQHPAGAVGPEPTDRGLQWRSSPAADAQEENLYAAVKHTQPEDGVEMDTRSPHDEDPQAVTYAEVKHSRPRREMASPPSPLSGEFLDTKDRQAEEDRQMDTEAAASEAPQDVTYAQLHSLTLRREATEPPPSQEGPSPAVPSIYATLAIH

| Binder | EC50 [1] [nM] | EC50 [2] [nM] | Top Inhibition (%) [2] [%] | binding result [3] | EC50 [3] [nM] |
| --- | --- | --- | --- | --- | --- |
| LK-RB1-29 (antibody, human IgG4 S228P, kappa, V domains shown) VH: QVQLKESGPGLVAPSQNLAITCTVSGFSLTNSGVSWVRQSPGKGLEWLGIIWGDGNTNYHSALISRLSISKDNSKSQVFLKLNSLQTDDTGTYYCAKPNWDYYALDYWGQGTSVTVSS VL: DIQMTQTASSLFASLGDRVTISCRASQDISNYLNWYQQKPDGSIKLLISYTSRLHSGVPSRFSGSGSGTDYSLSISNLEQEDIATYFCQQGISLPCTFGGGTKLEVNR | 2.38 | 2.93 | 93.3 | no binding |  |
| LK-RB1-39 (antibody, human IgG4 S228P, kappa, V domains shown) VH: EVQLQQSGAELVRPGASVKLSCTASGFNIKDDYVHWVNQRPEQGLEWIGWIDPENGDTGYASKFQDKATITADTSSNTAYLHLSSLTSEDTAVYYCTTTRWTGSYWGQGTTLTVSS VL: QIVLTQSPAIMSASPGEKVTITCSASSSVNYMHWFQQKPGSSPKLWIYSTANLASGVPARFSGSGSGTSYSLTISRMEAEDAATYYCQQRSSYPPTWTFGGGTKLEIKR | 0.77 | 0.68 | 95.7 |  | 0.17 |
| LK-RB1-34 (antibody, human IgG4 S228P, kappa, V domains shown) VH: QVQLQQSGAELVKPGASVKLSCKASGYTFTEYTIHWVKQRSGQGLEWIGWFYPGSDSIKYNEKFKDKATLTADKSSSTVYMELSRLTSEDSAVYFCSRHEGPYFTSQYYFDYWGQGTTLTVSS VL: DILLTQSPAILSVSPGERVSFSCRASRYIGTSIHWYQQRTNGSPRLLIKYASESISGIPSRFSGSGSGTDFTLSINSVESEDIADYYCQQSNTWPLTFGAGTKLELKR | 1.56 | 3.69 | 21.7 | no binding |  |
| LK-RB1-16 (antibody, human IgG4 S228P, kappa, V domains shown) VH: QVQLKESGPGLVAPSQSLSITCTVSGFSLISNAISWVRQPPGKGLEWLGVIWGDGNTIYHSALRSRLTISKDNSKSQVFLKLNSLQIDDTATYYCAKANWDGYYFDYWGQGTTLTVSS VL: DIQMNQSPSSLSASLGDTITITCHASQSVDFWLNWYQQKPGNIPKLLISKASNLHTGVPSRFSGSGSGTTFTLTISSLQPEDIATYYCQQGQSYPLTFGSGTKLEIKR | 0.81 | 0.53 | 98.2 | no binding |  |
| LK-RB1-15 (antibody, human IgG4 S228P, kappa, V domains shown) VH: QVTLKESGPGIVKPSQTLSLTCSFSGFSLSISGTGIGWIRQPSGKGLEWLAHIWWDDDKYYNPSLKSQVTISKDTSTKQVFLNITSVDTADTATYYCTRTELGRGDFWGQGTSVTVSS VL: DILLTQSPAILSVSPGDRVSFSCRASQSIGTNIHWYQRRTNGSPRLLIKYGSESISGIPSRFSGSGTGTDFTLTINSVESEDIADYYCQQSYSWPYTFGGGTKLEIKR | 0.64 | 0.79 | 67.3 | no binding |  |
| LK-RB1-23 (antibody, human IgG4 S228P, kappa, V domains shown) VH: QVQLQQTGAELVRPGSSVKLSCKASGYTFTNYWMDWVKQRPGQGLEWIGNIHPFGNETHYNQKFKDKATLTVDKSSSTAYMQLSSLTSEDSAVYYCARGLLLYFDVWGTGTTVTVSS VL: DIQMTQSPASQSVSVGETVTITCRASENIYSNLAWYQQKQGKSPQLLVYGATNLADGVSLRFSGSGSGTQYSLKINSLQSEDFGSYYCQHFWGIPWTFGGGTKLEIKR | 0.73 | 0.56 | 95.3 | no binding |  |
| LK-RB1-27 (antibody, human IgG4 S228P, kappa, V domains shown) VH: QVQLQQSGPELVKPGASVRMSCKASGYTFTSHYIHWMKQRPGQGLEWIGWIYPGDGHTKYHEKFKDRATLTADTSSITAYMRLSSLTSEDSAIYYCVYYSDSWFPYWGQGTLVTVSA VL: DIQMTQSPASLSVSVGETVTITCRASENIYSNLAWYQQKQGKSPHLLVYAATNLADGVPSRFSGSGSGTQYSLKINSLQSEDFGNYYCQHFWGSPWTFGGGTKLEIKR | 0.71 | 0.9 | 98.7 |  | 4.95 |
| LK-RB1-24 (antibody, human IgG4 S228P, kappa, V domains shown) VH: QVQLQQPGAELVNPGTSVNLSCKASGYTFTGYWMHWVKQRPGQGLEWIGMIHPNNGGTIYNERFNGKATLTVDRSSTTAYIQLSSLTSEDSAVYYCAYWDLDYWGQGTTLTVSS VL: not shown | 1.48 | 9.07 | 64.8 |  | 1.04 |
| LK-RB1-20 (antibody, human IgG4 S228P, kappa) heavy: not shown light: DIQMNQSPSSLSASLGDTITITCHASQNIDFWLSWYQQKPGNIPKLLIYKASNLHTGVPSRFSGSGSGTGFTLTISSLQPEDIATYYCQQGQSYPLTFGAGTKLELKRTVAAPSVFIFPPSDEQLKSGTASVVCLLNNFYPREAKVQWKVDNALQSGNSQESVTEQDSKDSTYSLSSTLTLSKADYEKHKVYACEVTHQGLSSPVTKSFNRGEC | 0.85 | 0.52 | 97.4 | no binding |  |
| LK-RB1-18 (antibody, human IgG4 S228P, kappa, V domains shown) VH: QVQLKESGPGLVAPSQSLSITCTVSGFSLTNSGVTWIRQPPGKGLEWLGVIWGDGSTNYHSALISRLSISKDNSKSQVFLKLNSLQTDDTATYYCAKPHWDYYNMDYWGQGTSVTVSS VL: DIQMTQTPSSLSASLGDRVTISCRASQDISNYLNWYQQKPDGTVKLLIYFTSRLHSGVPSRFSGSGSGTDYSLTISNLEQEDFATYFCQQGITLPLTFGAGTKLELKR | 0.58 | 0.47 | 98.7 | no binding |  |
| LK-RB1-19 (antibody, human IgG4 S228P, kappa, V domains shown) VH: QVQLKESGPGLVAPSQNLSITCTVSGFSLTSYGVSWVRQPPGKGLEWLGIIWGDGNTDYHSALISRLSIRKDNSKSQVFLKLNSLKSDDTATYYCAKPHWEYYTMDYWGQGTSVTVSS VL: DIQMTQTTSSLSASLGDRVTISCRASQDISNFLNWYQQKPDGTVKLLIYSTSRLHSGVPSRFSGSGSGTDYSLTIANLEQEDVATYFCQQGNTLPLTFGAGTKLELKR | 0.3 | 0.49 | 98.2 | no binding |  |
| LK-RB1-22 (antibody, human IgG4 S228P, kappa, V domains shown) VH: QVQLKESGPGLVAPSQSLSITCTVSGFSLTSYGVSWVRQPPGKGLEWLGIIWGDGNTNYHSALTSRLSISKDNSKSQVFLKLNSLRTDDTATYYCAKPHWDHYSMDYWGQGTSVTVSS VL: DIQMTQTTSSLSASLGDRVTISCRASQDISNFLNWYQQKPDGTVKLLIYYTSRLHSGAPSRFSGSGSGTDYSLTISNLDQEDIATYFCQQGNTLPLTFGAGTKLELKR | 1.76 | 1.4 | 100 | no binding |  |
| LK-RB1-30 (antibody, human IgG4 S228P, kappa, V domains shown) VH: QVQLKESGPGLVAPSQSLSITCTVSGFSLTSYGVSWIRQPPGKGLEWLGVIWGDGNTNYHSALISRLSISKDNSKSQVFLKLNSLQTDDTATYYCAKPSWDYYAMDYWGQGTSVTVSS VL: VIQMTQTTSSLSASLGDRVTISCRASQDISNYVNWYQQRPDGTVKLLISYTSRLHSGVPSRFSGSGSGTDYSLTITNLEQEDIATYFCQQGITLPCTFGGGTKLEINR | 1.06 | 0.7 | 95.6 | no binding |  |
| LK-RB1-26 (antibody, human IgG4 S228P, kappa, V domains shown) VH: QVQLKESGPGLVAPSQSLSITCTVSGFSLTSYGVSWVRQPPGKGLEWLGIIWGDGSTNYHSALISRLSISKDNSKSQVFLKLNSLQTDDTATYYCAKPNWDYYAMDYWGQGTSVTVSS VL: DIQMTQTTSSLSASLGDRVTISCRASQDISNFLNWYQQKPDGTFKLLISYTSTLHSGVPSRFSGSGSGTDYSLTISNLEQEDVATYFCQQGNTLPLTFGAGTKLALKR | 0.51 | 0.69 | 99.6 | no binding |  |
| LK-RB1-21 (antibody, human IgG4 S228P, kappa, V domains shown) VH: QVQLQQPGAELVKPGASVKMSCKASGYIFTDYWTTWVKQRPGQGLEWIGDIYPVSGSTNYNEKFKNKATLTVDTSSSTAYMQLSSLTSEDSAVYYCARALGRRYYFDYWGQGTTLTVSS VL: DIVMTQSHKFMSTSIGDRVSITCKASQDVSTAVAWCQQKPGQSPKSLIYSASYRYTGIPDRFTGSGSGTDFTFTISSVQAEDLAVYYCQQHYTNPVTFGTGTKLELKR | 1.88 | 0.53 | 98.1 | no binding |  |
| LK-RB1-25 (antibody, human IgG4 S228P, kappa, V domains shown) VH: QIQLVQSGPELKKPGETVKISCKASGYTFTSYGMNWMKQAPGEGLKWMGWINTYSGVPTYADDFKGRFAFSLETSATTVYLQINNLKNEDKATYFCARRGRDSVVGHFDVWGTGTTVTVSS VL: DIVMTQSHKFMSTSVGDRVSITCKASQDVNTAVAWYQQKPGQSPKLLIYWASTRHTGVPDRFTGSGSGTDFTLTISSVQAEDLALYYCQQHYTIPFTFGSGTKLEIKR | 1.07 | 0.62 | 98.1 | no binding |  |
| LK-RB1-33 (antibody, human IgG4 S228P, kappa, V domains shown) VH: QIQLVQSGPELKKPGDTVKISCKASGYTFTSYGMNWVKQAPGEGLKWMGWINTYSGVPTYGDDFKGRFAFSLETSASTAYLQINNLENEDTATYFCARRGRDSVVGHFDVWGTGTTVTVSS VL: DIVMTQSHKFMSTSVGDRVSITCKASQDVNTAVAWYQQKPGQSPKLLIYWASTRHTGVPDRFTGSGSGTDFTLTISSVQAEDLALYYCQQHYTIPFTFGSGTRLEIKR | 1.13 | 1.38 | 92.7 | no binding |  |
| LK-RB1-42 (antibody, human IgG4 S228P, kappa, V domains shown) VH: QVQLQQPGAELVKPGTSVKLSCKASGYSFISYWVYWVKQRPGQGLEWIGMIHPNSGSTNFNEKFRYKATLTVDKSSSTAYIQLSSLTSEDSAVYYCGRSDDGYPYHAMDSWGQGTSVTVSS VL: DIVMTQSQKFMSTSVGDRVSVTCKASQNVGTNVAWYQQKPGQSPKALIYSASYRFSGVPDRFTGSGSGTDFTLTIGNVQSEDLAEYFCHQYKNYPLTFGGGTKLEIKR | 0.89 | 4.5 | 62.2 | no binding |  |
